This passage reports EC50 results from US12528864.

Broadly, the EC50 is the concentration needed to bring the measured effect to its halfway point.

To fix the notation:
B1: 42Y073-1A01-100 (antibody, V domains shown)
VH: QVQLVQSGAEVKKPGASVKVSCKASGYTFTTYRMHWVRQAPGQGLEWMGIINPSGGLTQYAQKFQGRVTMTRDTSTSTVYMELSSLRSEDTAVYYCARETAYYTTKGNWFDPWGQGTLVTVSS
VL: DIQMTQSPSSLSASVGDRVTITCRASQSISSYLNWYQQKPGKAPKLLIYAASSLQSGVPSRFSGSGSGTDFTLTISSLQPEDFATYYCQQSLYPPRTFGGGTKVEIK
B2: 42Y073-86F04-5 (antibody, V domains shown)
VH: QVQLVQSGAEVKKPGSSVKVSCKASGGTFSSHAISWVRQAPGQGLEWMGGIIPIFGRGKYAQKFQGRVTITADESTSTAYMELSSLRSEDTAVYYCARLLGESGMDVWGQGTTVTVSS
VL: B1 VL with S91P, L92Y, Y93F, P94S, R96P
B3: 42Y073-86F04-18 (antibody, V domains shown)
VH: B2 VH with H32R, F55M, R57T, G58A, K59R
VL: B1 VL with S91P, L92Y, Y93F, P94S, R96P
B4: 42Y073-1A01-85 (antibody, V domains shown)
VH: B1 VH with T31S, R33P, L57F, Q59S, S123A
VL: B1 VL
B5: 42Y073-86F04-3 (antibody, V domains shown)
VH: B2 VH with S31Y, H32N, F55M, R57T, G58A, K59R
VL: B1 VL with S91P, L92Y, Y93F, P94S, R96P
B6: 42Y073-86F04-4 (antibody, V domains shown)
VH: B2 VH with S30E, H32E, G58A, K59R
VL: B1 VL with S91P, L92Y, Y93F, P94S, R96P
B7: 42Y073-1A01-191 (antibody, V domains shown)
VH: B1 VH with T31K, S54Q, L57S, Q59S, S123A
VL: B1 VL
B8: 42Y073-1A01-103 (antibody, V domains shown)
VH: B1 VH with T31A, R33Q, S54A, L57W, Q59S
VL: B1 VL
B9: 42Y073-86F04-6 (antibody, V domains shown)
VH: B2 VH with S31G, G58A, K59R
VL: B1 VL with S91P, L92Y, Y93F, P94S, R96P
B10: 42Y073-86F08-3 (antibody, V domains shown)
VH: QVQLVQSGAEVKKPGSSVKVSCKASGGTFVNYAISWVRQAPGQGLEWMGGIIPALGTANYAQKFQGRVTITADESTSTAYMELSSLRSEDTAVYYCARGAGYYGDKDPMDVWGQGTTVTVSS
VL: DIQLTQSPSSLSASVGDRVTITCRASQSISSYLNWYQQKPGKAPKLLIYAASSLQSGVPSRFSGSGSGTDFTLTISSLQPEDFATYYCQQVLHTITFGGGTKVEIK
B11: 42Y073-86F08-17 (antibody, V domains shown)
VH: B10 VH with V30R, N31E, A54V, L55F
VL: B10 VL
B12: 42Y073-86F08-8 (antibody, V domains shown)
VH: B10 VH with V30W, N31L, A54Q
VL: B10 VL
B13: 42Y073-86F08-47 (antibody, V domains shown)
VH: B10 VH with V30S, N31Q, S35H, G50V, A54I, L55F, T57K
VL: B10 VL
B14: 42Y073-86F08-22 (antibody, V domains shown)
VH: B10 VH with S16A, G27Y, V30D, N31S, I34M, S35H, A54I, L55F, N59W
VL: B10 VL
B15: 42Y073-86F08-4 (antibody, V domains shown)
VH: B10 VH with V30S, N31E, S35H, G50N, A54I, L55F, N59G
VL: B10 VL

Changes are numbered by the printed parent chain.

The test has as its target human CD96, native, on primary human T cells (human) (UniProt P40200). The test is described as follows: flow cytometry on primary human CD3+ T cells. A general note: A flow cytometer gives signals particle by particle.
As for B1, the EC50 was found to be 0.01 nM.

Take B2: the concentration giving a half-maximal response (EC50) stood at 0.05 nM.

B3: the EC50 is 0.01 nM.

B4 yielded an EC50 of 0.32 nM.

Turning to B5, the 50% effective concentration (EC50) worked out at 0.09 nM.

As to B6, the EC50 stood at 0.05 nM.

For the molecule B7, the EC50 was determined as 0.38 nM.

Consider B8, for which the EC50 was determined as 0.01 nM.

On to B9, for which the EC50 is 0.01 nM.

Take B10: the EC50 was found to be 0.05 nM.

B11 showed an EC50 of 0.01 nM.

Molecule B12 returned a concentration giving a half-maximal response (EC50) of 0.04 nM.

In turn, B13 gave an EC50 of 0.03 nM.

Molecule B14 registered an EC50 of 0.18 nM.

Consider B15, for which the EC50 was determined as 0.01 nM.
